The results in this text go back to paper PMC2764445.

In series [1] the target is T1, Hfq (His-tagged; natural Hfq used in some experiments) (UniProt P0A6X3 1-102). Briefly: fluorescence anisotropy. (Polarisation of emitted light reports the rotation of a fluorescent probe.)
For series [2], the target named is T1, Hfq (His-tagged; natural Hfq used in …). Briefly: EMSA. In general terms: A gel shift assay detects complexes by their altered migration in electrophoresis.
For series [3] the target is unchanged. In words: EMSA. This is another data set of the same source.

Read-outs that look alike come from different tables or passages of the source.

T1 sequence (P0A6X3 whole entry): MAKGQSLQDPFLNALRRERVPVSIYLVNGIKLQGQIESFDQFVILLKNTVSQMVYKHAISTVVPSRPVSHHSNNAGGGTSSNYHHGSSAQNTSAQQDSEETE

B1: D16-FAM (ssRNA)
RNA: CGAAUUUUUUAAGUGC
For B1, binding in series [1] was put at a Kd of 23 ± 4 nM.

B2: dMB-D16 (ssDNA)
DNA: CCAGGGCACTTAAAAAATTCGCCTGG
As for B2, the binding result in series [2] is reported as “no binding”.

B3: dMB-R16 (ssDNA)
DNA: CCCCTCGAATTTTTTAAGTGCAGGGG
On to B3, for which the binding result in series [2] is given as “no binding”.

B4: R16 (ssRNA)
RNA: GCACUUAAAAAAUUCG
For the molecule B4, in series [3], the binding result is “binds”.
